Experimental data: US20200299706A1 (COLD SPRING HARBOR LABORATORY, published 2020)

B1: J2 (Jointless-2, Solyc12g038510) SEP4-homolog MADS-box protein (other)
chain: MGRGRVELKRIENKINRQVTFAKRRNGLLKKAYELSILCDAEVALIIFSSRGKLYEFSSASSMMTTLEKYQQCSYASLDPMLPVSDTQMNYNEYVRLKARVELLQRSQRHILGEDLGTLNSKELEQLEHQLDASLKKVRSKKTQSMLDQLADLQEKEQMLEEANKQLKNKLEESAARIPLGLSWGNNGGQTMEYNRLPPQTTAQPFFQPLRLNSSSPQFGYNPNMGANDHEVNAATTAHNINGFIPGWML
B2: EJ2 (Enhancer-of-Jointless-2, Solyc03g114840) SEP4-homolog MADS-box protein (other)
chain: MGRGRVELKRIENKINRQVTFAKRRNGLLKKAYELSVLCDAEVALIIFSNRGKLYEFCSTSSMVKTIEKYQRCSYATLEANQSVTDTQNNYHEYLRLKARVELLQRSQRNFLGEDLGTLSSKDLEQLENQLESSLKQIRSRKTQFMLDQLADLQQKEQMLAESNRLLRRKLEESVAGFPLRLCWEDGGDHQLMHQQNRLPNTEGFFQPLGLHSSSPHFGYNPVNTDEVNAAATAHNMNGFIHGWML

Assays:
[1] = target: the molecule itself; assay: yeast two-hybrid, FIG. 5C
Protocol: (§1) Protein interaction assays in yeast were performed using the Matchmaker Gold Yeast Two-Hybrid System (Clontech) as described before (Park et al., 2014b). The coding sequences for bait proteins were cloned into the pGBKT7 vector, and the resulting vectors were transformed into the Y2HGold yeast strain. The coding sequences for prey proteins were cloned into the pGADT7 AD vector, and the resulting vectors were transformed into the Y187 yeast strain. After mating the two yeast strains expressing bait and prey proteins, diploid yeast cells were selected and grown on dropout medium without leucine and tryptophan. To assay protein-protein interactions, clones were grown on triple-dropout medium without leucine, tryptophan, and histidine for 3 d at 30° C. To block auto-activation, 3 mM 3-amino-1,2,4-triazole (3-AT) were added or adenine was removed from the triple-dropout medium. All primer sequences used for cloning can be found in Table 2.

[2] = target: the molecule itself; assay: yeast two-hybrid (Matchmaker Gold; growth on -L-T-H medium)
Protocol: as §1

Protein | binding result [1] | binding result [2]
B1 | binds | –
B2 | – | no binding
